Biological target: human matrix metalloproteinase-9 (MMP-9) (human) (UniProt P14780)
Assay: cell-based or functional assay

Chain of UniProt P14780 (P14780 107-707 Q279R/R574P limits assumed): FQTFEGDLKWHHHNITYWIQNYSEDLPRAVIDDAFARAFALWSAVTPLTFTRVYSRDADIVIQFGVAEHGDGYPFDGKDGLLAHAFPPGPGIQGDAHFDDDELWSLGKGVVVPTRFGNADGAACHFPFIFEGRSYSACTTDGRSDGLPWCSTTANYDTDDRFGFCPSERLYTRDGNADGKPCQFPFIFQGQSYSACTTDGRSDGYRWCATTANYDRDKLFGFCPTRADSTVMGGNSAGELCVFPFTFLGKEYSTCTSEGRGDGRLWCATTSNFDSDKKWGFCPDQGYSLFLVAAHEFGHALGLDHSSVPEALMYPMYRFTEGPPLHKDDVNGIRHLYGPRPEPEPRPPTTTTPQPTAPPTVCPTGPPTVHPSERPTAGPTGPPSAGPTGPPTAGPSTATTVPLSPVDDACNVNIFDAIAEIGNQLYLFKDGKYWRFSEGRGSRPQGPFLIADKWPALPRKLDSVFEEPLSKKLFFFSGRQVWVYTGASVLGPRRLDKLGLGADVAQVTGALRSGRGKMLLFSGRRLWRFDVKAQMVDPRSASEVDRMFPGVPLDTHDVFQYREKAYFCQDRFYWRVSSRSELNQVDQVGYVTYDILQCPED

Question: Which results are given for “anti-human MMP-9 monoclonal antibody (raised in mouse) obtained from Chemicon International (catalog number MAB13415)”?
Answer: FBGC formation from human monocytes induced with IL-4 and GM-CSF (FBGC/high power field) (FBGC/high power field): 3.7; fraction of cells fused: 9.8%

— US20060002969A1
